Reference: the supplement of paper PMC12764529
± gives the half width of the 95% confidence interval.

Assays:
[1] = folding stability dG unfold from chymotrypsin proteolysis; higher = more stable
Summary of the method: (§1)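 How resistant each design was to proteolysis was captured as K50, inferred by Bayesian fitting of sequencing counts. Unfolding free energy was then derived relative to a sequence-predicted unfolded-state K50 and a shared folded-state K50, per protease or combined. Digestion used trypsin and chymotrypsin at 11 threefold-diluted concentrations plus a no-protease condition, on mini-proteins under 80 residues without cysteine in a PA-tagged cDNA display construct. Designs were kept only when AlphaFold2 dimer inter-PAE was above 15.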

[2] = folding stability dG unfold (combined trypsin and chymotrypsin); higher = more stable
Summary of the method: as §1

| Sequence | folding stability dG unfold [1] | folding stability dG unfold [2] |
| --- | --- | --- |
| SAGGSAGGSASLDPVVVTVTRYPTGVTTTTVSSRPGGEPVTTTTTYDPVSPVAPLPASRLASAGGSAGGSAG [r3_336_JUSTAS] | 0.59 ± 0.032 kcal/mol | 0.167 ± 0.12 kcal/mol |
| SAGGSAGGSASLIVISPPGAPRTIPLEGLVEKGIPEREAAELLEKELGIEINLSEPGVIRAKSAGGSAGGSA [r18_7_JUSTAS] | 0.249 ± 0.044 kcal/mol | -0.186 ± 0.12 kcal/mol |
| SAGGSAGGSASLVVVTTKPPNGPETVELTTDYPPDVRRVTTDPKTGATSEVVVLPADAVLPSAGGSAGGSAG [r3_356_JUSTAS] | 0.873 ± 0.06 kcal/mol | 0.295 ± 0.2 kcal/mol |
| SAGGSAGGSASMSTTEITVTELEEPGEGKRLVIETKSFTPEGKEIDSEKVEEEVREELGVKPSAGGSAGGSA [r18_332_JUSTAS] | -0.0823 ± 0.079 kcal/mol | -0.585 ± 0.24 kcal/mol |
| SAGGSAGGSAVEFTDPNGAEVLEIKPLPDGTTRVLTKLPGGEIPIVTYDPNTGKITTTLLPASAGGSAGGSA [r18_483_JUSTAS] | 0.135 ± 0.11 kcal/mol | -0.251 ± 0.2 kcal/mol |
| SAGGSAGGSDIEIIINPNMSLEQAKKFANYLAQENNIPIEIEIIPPPKPEPEPERDPEDGKPKSAGGSAGGS [r12_159_TrROS] | -0.232 ± 0.36 kcal/mol | < -1 kcal/mol |
| SAGGSAGGSDKDVKIKVDPERTPDGNYYYRIEIENGKEINIHMPPENMTPEDAKDFVKDIIKKSAGGSAGGS [r12_218_TrROS] | -0.44 ± 0.39 kcal/mol | < -1 kcal/mol |
| SAGGSAGGSDKIRKALKELGYPYEIDNIDVNVTKNGNPEIEIKYSPGMPPQDQKRIKRAVIDLSAGGSAGGS [r12_352_TrROS] | -0.14 ± 0.065 kcal/mol | -0.469 ± 0.15 kcal/mol |
| SAGGSAGGSDPTYVEVRTLAGPAGPTRVLIRPSSGEWLEAEFPVDRPVVFFVPADVEVEVLPDSAGGSAGGS [r12_517_TrMRF] | 0.498 ± 0.048 kcal/mol | 0.0902 ± 0.054 kcal/mol |
| SAGGSAGGSEEFVILEIPFERKFVVKDPEGGEEREFEFRPVIPLVLPPELAEKLLKSPYLQKKSAGGSAGGS [r12_1015_TrMRF] | 0.721 ± 0.26 kcal/mol | 0.416 ± 0.22 kcal/mol |
| SAGGSAGGSEKLEIVKAFVFENEVILIVKKEKEYYVLKLKFKDGKIESLEFIGPVPENDPSLGSAGGSAGGS [r12_154_TrMRF] | 4.92 ± 0.16 kcal/mol | 5.27 ± 0.48 kcal/mol |
| SAGGSAGGSELITLTEKASLAVGELNLPSPEELAKKKYPDVKPKNITVSTKPGEGLVTVTVDGKSAGGSAGG [r6_81_JUSTAS] | 0.207 ± 0.091 kcal/mol | -0.222 ± 0.19 kcal/mol |
| SAGGSAGGSENAALENPFANRPPIPPVRAVLYDPDGTPRVLEGRSLEEIRRYAEERGVVVDISSAGGSAGGS [r12_244_TrMRF] | 0.397 ± 0.072 kcal/mol | -0.165 ± 0.075 kcal/mol |
| SAGGSAGGSEPRLILTTFPLPEPGEPVLRLLVIGEDRILAVRVVGEKPELRELDRLDDLLAEQSAGGSAGGS [r12_299_TrMRF] | -0.433 ± 0.46 kcal/mol | < -1 kcal/mol |
| SAGGSAGGSFELPVPPNTPVDIEATVTRPDGTPATLVDAEPLGDGTFRVTVRYPDGSTETIEVSAGGSAGGS [r12_31_JUSTAS] | 0.959 ± 0.038 kcal/mol | 0.464 ± 0.061 kcal/mol |
| SAGGSAGGSGAEITTLPEGRALLRLYDEGGVLVEEAEVEVELDAVLVFDRDNPRIGVFGPDELSAGGSAGGS [r12_1002_TrMRF] | 0.0264 ± 0.13 kcal/mol | -0.203 ± 0.14 kcal/mol |
| SAGGSAGGSGGTIKLPLYPPEGKEYKGTIPKEKLEAAIAKGEPIKVTLKTKGKEVKEYTIPIKSAGGSAGGS [r12_991_JUSTAS] | -0.582 ± 0.44 kcal/mol | -0.983 ± 0.48 kcal/mol |
| SAGGSAGGSGHHHMTTRTSTSTDPATGSTTVTTTRTTTDGGTVTTTTTLPPPAATTTTSTTTSSAGGSAGGS [r12_1029_JUSTAS] | 0.349 ± 0.044 kcal/mol | -0.165 ± 0.11 kcal/mol |

| Sequence | folding stability dG unfold [1] | folding stability dG unfold [2] |
| --- | --- | --- |
| SAGGSAGGSGMPRKIASYEEKEEEDGKKTVKVRFPDDGKEITLSPEKAGKITPDSTVPLEELLSAGGSAGGS [r20_3_JUSTAS] | 0.404 ± 0.049 kcal/mol | -0.168 ± 0.43 kcal/mol |
| SAGGSAGGSGMPTRNVPITTPDGKVVTVVERPPERAEIIFPDGSRATIVDPARGYEEITITPESAGGSAGGS [r12_491_JUSTAS] | 0.945 ± 0.027 kcal/mol | 0.542 ± 0.059 kcal/mol |
| SAGGSAGGSGMSSTSTTTVEIEKDPSTGKVLKKTVTSPTTTLAPGGEWTTTVSTSTEEISPDLSAGGSAGGS [r12_629_JUSTAS] | -0.101 ± 0.24 kcal/mol | -0.237 ± 0.4 kcal/mol |
| SAGGSAGGSIEINPNGNFKIRFRGGNRPQTHTIPIKPGETLDTIKDTIRKHMGPNFPEVEIERSAGGSAGGS [r12_300_TrROS] | 0.0855 ± 0.11 kcal/mol | -0.152 ± 0.13 kcal/mol |
| SAGGSAGGSKPIPIKIKARNKDDGKKREEDIQIPPEALKNGKFDKEQIKKELRKLGPRVEIEISAGGSAGGS [r20_221_TrROS] | -0.216 ± 0.18 kcal/mol | < -1 kcal/mol |
| SAGGSAGGSMEKRKLEIEIHLPASEATEEEMEELAEEYAKKNPEADEVTFKFTVEESDKESLESAGGSAGGS [r20_86_JUSTAS] | -0.141 ± 0.25 kcal/mol | -0.605 ± 0.33 kcal/mol |
| SAGGSAGGSMKTVKPTELLASLSPEEEVILTTPTSATRLTVEEVKNVPEDTPVDVEVVPRNAASAGGSAGGS [r12_501_JUSTAS] | 0.685 ± 0.015 kcal/mol | 0.244 ± 0.051 kcal/mol |
| SAGGSAGGSMNVKKVESEKDTGDGSTLTTNTVELPSNIIIVEPVLTPPSGNPQTTTKILPKGLSAGGSAGGS [r12_407_JUSTAS] | -0.157 ± 0.12 kcal/mol | -0.5 ± 0.18 kcal/mol |
| SAGGSAGGSMSTVSTSTTYFPDKKVTTTTTVTPTPDGTTATTPSVTVTPLPPPNPPPAPFNRLSAGGSAGGS [r20_30_JUSTAS] | -0.125 ± 0.28 kcal/mol | -0.351 ± 0.36 kcal/mol |
| SAGGSAGGSNWIEKAINEAMKQHPPGQERKVPIEIYNPNNNKPIGKIPIRIRMDKDGPMEIEISAGGSAGGS [r20_151_TrROS] | 0.864 ± 0.049 kcal/mol | 0.529 ± 0.074 kcal/mol |
| SAGGSAGGSPKKRTVEIDEWDPEEGNVRARIRDDDEEREFPFRTPEDLEDLANEGGIDKITPHSAGGSAGGS [r12_421_TrROS] | 0.518 ± 0.027 kcal/mol | 0.0607 ± 0.095 kcal/mol |
| SAGGSAGGSPNQDFKVKVKIKEFNPGNGHIRIDVEVEGDNPQVQDFAKGIAEGFGFPVEVEPISAGGSAGGS [r20_157_TrROS] | 0.34 ± 0.038 kcal/mol | -0.0925 ± 0.14 kcal/mol |
| SAGGSAGGSQWIEIELPLPNGRNIQIEMWPNNGMVDVEWPDGKEVEFPVETADDALDRVLDALSAGGSAGGS [r12_866_TrROS] | 0.552 ± 0.12 kcal/mol | 0.0352 ± 0.21 kcal/mol |
| SAGGSAGGSSMEVVTPIERPVDVTSPENGEVVKVRVKTLVGKDPNAWTTETTLTLPDGTPVALSAGGSAGGS [r12_283_JUSTAS] | 0.988 ± 0.11 kcal/mol | 0.337 ± 0.2 kcal/mol |
| SAGGSAGGSVEELLAAATSEDPAKGLARAELPSGATATVDPAAGTVTITFTSPGTPSTTTVPAPSAGGSAGG [r6_793_JUSTAS] | 0.33 ± 0.13 kcal/mol | < -1 kcal/mol |
| SAGGSAGGSVYLDPAVLAELEALRQAGLRVAEVREERVEVEGGPPRRVDVRAVVVDLPPEALAASAGGSAGG [r6_771_JUSTAS] | 0.621 ± 0.056 kcal/mol | -0.11 ± 0.18 kcal/mol |
| SAGGSAGGTIRIPPAARNMMKELQKQGFVIEEIKIDEIERTENGPPWIEIDFEIKKLPPEALKDSAGGSAGG [r6_771_TrROS] | -0.317 ± 0.33 kcal/mol | -0.939 ± 0.89 kcal/mol |
| SAGGSAGGVEELAKKLNIEVTGNEVTITLKKKKVTVKKLKAPPLKVKKYVDKKTKKIVKTEVELSAGGSAGG [r6_981_TrROS_Hall] | 0.9 ± 0.28 kcal/mol | 0.431 ± 0.29 kcal/mol |
